According to patent US12338277:

Experiments:
Test in all cases: cell-based or functional assay
[1] = target: HIV-1 Env of pseudovirus 62357_14_03_4589 (HIV-1)
[2] = target: HIV-1 envelope of pseudovirus 6244_13_85_4576 (HIV-1)
[3] = target: HIV-1 Env of pseudovirus 0260.v5.c36 (HIV-1)
[4] = target: HIV-1 envelope of pseudovirus Ce1086_B2 (HIV-1)
[5] = target: HIV-1 envelope spike of pseudovirus TRJO4551.58 (HIV-1)
[6] = target: HIV-1 envelope spike of pseudovirus R1166.c1 (HIV-1)
[7] = target: HIV-1 Env of pseudovirus Q842.d12 (HIV-1)
[8] = target: HIV-1 Env of pseudovirus 89-F1_2_25 (HIV-1)
[9] = target: HIV-1 envelope of pseudovirus 246F C1G (HIV-1)
[10] = target: HIV-1 envelope of pseudovirus 3365.v2.c2 (HIV-1)
[11] = target: HIV-1 envelope of pseudovirus R1166.c01 (HIV-1)
[12] = target: HIV-1 Env of pseudovirus TRJO4551.58 (HIV-1)
[13] = target: HIV-1 envelope of pseudovirus 6540.v4.c1 (HIV-1)
[14] = target: HIV-1 envelope of pseudovirus Ce704809221_1B3 (HIV-1)
[15] = target: HIV-1 Env of pseudovirus 6811.v7.c18 (HIV-1)
[16] = target: HIV-1 envelope spike of pseudovirus CAAN5342.A2 (HIV-1)
[17] = target: HIV-1 envelope of pseudovirus ZM214M.PL15 (HIV-1)
[18] = target: HIV-1 Env of pseudovirus 7030102001E5(Rev-) (HIV-1)
[19] = target: HIV-1 Env of pseudovirus ZM249M.PL1 (HIV-1)
[20] = target: HIV-1 envelope of pseudovirus MS208.A1 (HIV-1)
[21] = target: HIV-1 envelope of pseudovirus TRJO4551.58 (HIV-1)
[22] = target: HIV-1 envelope of pseudovirus HIV-001428-2.42 (HIV-1)
[23] = target: HIV-1 envelope of pseudovirus CNE58 (HIV-1)
[24] = target: HIV-1 envelope of pseudovirus C3347.c11 (HIV-1)
[25] = target: HIV-1 envelope spike of pseudovirus YU-2 (HIV-1) (UniProt P35961)
Sequence of HIV-1 envelope spike of pseudovirus YU-2 (HIV-1) (P35961 32-843): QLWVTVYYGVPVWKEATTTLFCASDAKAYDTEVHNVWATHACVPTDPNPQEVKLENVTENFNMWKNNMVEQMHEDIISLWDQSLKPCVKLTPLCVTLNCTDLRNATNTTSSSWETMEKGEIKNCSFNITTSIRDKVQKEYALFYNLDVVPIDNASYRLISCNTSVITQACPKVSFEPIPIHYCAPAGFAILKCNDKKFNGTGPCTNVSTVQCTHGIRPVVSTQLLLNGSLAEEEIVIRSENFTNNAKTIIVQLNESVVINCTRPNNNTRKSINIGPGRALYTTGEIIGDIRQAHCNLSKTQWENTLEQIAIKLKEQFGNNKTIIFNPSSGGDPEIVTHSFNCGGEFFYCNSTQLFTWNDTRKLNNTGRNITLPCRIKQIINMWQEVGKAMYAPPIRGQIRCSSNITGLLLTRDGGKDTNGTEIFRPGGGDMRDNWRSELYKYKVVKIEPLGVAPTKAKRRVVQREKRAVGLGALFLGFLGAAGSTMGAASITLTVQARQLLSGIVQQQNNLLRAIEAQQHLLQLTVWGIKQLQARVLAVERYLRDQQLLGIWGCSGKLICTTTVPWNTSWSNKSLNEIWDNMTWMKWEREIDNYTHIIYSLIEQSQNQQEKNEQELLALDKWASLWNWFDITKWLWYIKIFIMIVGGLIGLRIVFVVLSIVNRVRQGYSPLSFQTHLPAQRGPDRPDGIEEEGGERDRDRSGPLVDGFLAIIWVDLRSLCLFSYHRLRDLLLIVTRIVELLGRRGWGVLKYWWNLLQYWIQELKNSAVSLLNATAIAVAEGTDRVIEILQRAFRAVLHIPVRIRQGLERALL

[26] = target: HIV-1 Env of pseudovirus CNE52 (HIV-1)
[27] = target: HIV-1 envelope of pseudovirus ZM247v1(Rev-) (HIV-1)
[28] = target: HIV-1 envelope of pseudovirus 620345.c01 (HIV-1)
[29] = target: HIV-1 Env of pseudovirus AC10.0.29 (HIV-1)
[30] = target: HIV-1 envelope of pseudovirus 249M B10 (HIV-1)
[31] = target: HIV-1 Env of pseudovirus 1394C9G1(Rev-) (HIV-1)
[32] = target: HIV-1 envelope of pseudovirus CNE17 (HIV-1)
[33] = target: HIV-1 envelope of pseudovirus Du172.17 (HIV-1)
[34] = target: HIV-1 Env of pseudovirus T251-18 (HIV-1)
[35] = target: HIV-1 Env of pseudovirus 6545.v4.c1 (HIV-1)
[36] = target: HIV-1 envelope of pseudovirus Ce0682_E4 (HIV-1)
[37] = target: HIV-1 Env of pseudovirus Ce704809221_1B3 (HIV-1)
[38] = target: HIV-1 Env of pseudovirus ZM135M.PL10a (HIV-1)
[39] = target: HIV-1 Env of pseudovirus 620345.c01 (HIV-1)
[40] = target: HIV-1 envelope of pseudovirus YU-2 (HIV-1)
[41] = target: HIV-1 Env of pseudovirus Ce2060_G9 (HIV-1)
[42] = target: HIV-1 envelope of pseudovirus QH0692.42 (HIV-1)
[43] = target: HIV-1 Env of pseudovirus HIV-16055-2.3 (HIV-1)
[44] = target: HIV-1 envelope of pseudovirus HIV-16055-2.3 (HIV-1)
[45] = target: HIV-1 Env of pseudovirus WEAU_d15_410_787 (HIV-1)
[46] = target: HIV-1 envelope of pseudovirus Ce1176_A3 (HIV-1)
[47] = target: HIV-1 Env of pseudovirus T278-50 (HIV-1)
[48] = target: HIV-1 envelope of pseudovirus Q451.e2 (HIV-1)
[49] = target: HIV-1 Env of pseudovirus RHPA4259.7 (HIV-1)

Sequence of 10-996 (antibody) (VH): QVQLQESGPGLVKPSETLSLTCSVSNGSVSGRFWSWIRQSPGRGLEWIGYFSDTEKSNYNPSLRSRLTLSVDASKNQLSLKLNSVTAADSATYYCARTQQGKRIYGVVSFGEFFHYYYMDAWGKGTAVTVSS
Sequence of 10-996 (antibody) (VL): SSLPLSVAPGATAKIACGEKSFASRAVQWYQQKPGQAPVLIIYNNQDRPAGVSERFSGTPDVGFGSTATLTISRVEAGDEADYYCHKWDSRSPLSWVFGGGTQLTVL

Substance: PGT121 (antibody)
- IC80 (TZM-bl neutralization) [1]: 45.6 mg/L
- IC50 (TZM-bl neutralization) [2]: 0.249 mg/L
- IC80 (TZM-bl neutralization) [3]: 0.152 mg/L
- IC50 (TZM-bl neutralization) [4]: < 0.001 mg/L
- IC50 (TZM-bl neutralization assay) [5]: 3.9 mg/L
- IC80 (TZM-bl neutralization assay) [5]: 26.9 mg/L
- IC50 (TZM-bl neutralization assay) [6]: > 40 mg/L
- IC80 (TZM-bl neutralization assay) [6]: > 40 mg/L
- IC80 (TZM-bl neutralization) [7]: 0.074 mg/L
- IC80 (TZM-bl neutralization) [8]: > 50 mg/L
- IC50 (TZM-bl neutralization) [9]: 0.083 mg/L
- IC50 (TZM-bl neutralization) [10]: 0.921 mg/L
- IC50 (TZM-bl neutralization) [11]: > 50 mg/L
- IC80 (TZM-bl neutralization) [12]: 35.3 mg/L
- IC50 (TZM-bl neutralization) [13]: > 50 mg/L
- IC50 (TZM-bl neutralization) [14]: 0.098 mg/L
- IC80 (TZM-bl neutralization) [15]: 0.017 mg/L
- IC50 (TZM-bl neutralization assay) [16]: 0.013 mg/L
- IC80 (TZM-bl neutralization assay) [16]: 0.056 mg/L
- IC50 (TZM-bl neutralization) [17]: 0.236 mg/L
- IC80 (TZM-bl neutralization) [18]: 0.043 mg/L
- IC80 (TZM-bl neutralization) [19]: > 50 mg/L
- IC50 (TZM-bl neutralization) [20]: > 50 mg/L
- IC50 (TZM-bl neutralization) [21]: 3.73 mg/L
- IC50 (TZM-bl neutralization) [22]: 0.028 mg/L
- IC50 (TZM-bl neutralization) [23]: > 50 mg/L
- IC50 (TZM-bl neutralization) [24]: > 50 mg/L
- IC50 (TZM-bl neutralization assay) [25]: 0.098 mg/L
- IC80 (TZM-bl neutralization assay) [25]: 0.356 mg/L
- IC80 (TZM-bl neutralization) [26]: 32.9 mg/L
- IC50 (TZM-bl neutralization) [27]: 0.027 mg/L
- IC50 (TZM-bl neutralization) [28]: > 50 mg/L
- IC80 (TZM-bl neutralization) [29]: 0.169 mg/L
- IC50 (TZM-bl neutralization) [30]: > 50 mg/L
- IC80 (TZM-bl neutralization) [31]: 3.37 mg/L
- IC50 (TZM-bl neutralization) [32]: 45.3 mg/L
- IC50 (TZM-bl neutralization) [33]: 0.115 mg/L
- IC80 (TZM-bl neutralization) [34]: > 50 mg/L
- IC80 (TZM-bl neutralization) [35]: > 50 mg/L
- IC50 (TZM-bl neutralization) [36]: > 50 mg/L
- IC80 (TZM-bl neutralization) [37]: 0.492 mg/L
- IC80 (TZM-bl neutralization) [38]: 5.88 mg/L
- IC80 (TZM-bl neutralization) [39]: > 50 mg/L
- IC50 (TZM-bl neutralization) [40]: 0.098 mg/L
- IC80 (TZM-bl neutralization) [41]: > 50 mg/L
- IC50 (TZM-bl neutralization) [42]: 1.04 mg/L
- IC80 (TZM-bl neutralization) [43]: 4.29 mg/L
- IC50 (TZM-bl neutralization) [44]: 0.444 mg/L
- IC80 (TZM-bl neutralization) [45]: 0.295 mg/L
- IC50 (TZM-bl neutralization) [46]: 0.017 mg/L
- IC80 (TZM-bl neutralization) [47]: > 50 mg/L
- IC50 (TZM-bl neutralization) [48]: > 50 mg/L
- IC80 (TZM-bl neutralization) [49]: 0.054 mg/L

Substance: 10-996 (antibody)
- IC80 (TZM-bl neutralization) [1]: > 50 mg/L
- IC50 (TZM-bl neutralization) [2]: 0.353 mg/L
- IC80 (TZM-bl neutralization) [3]: 0.436 mg/L
- IC50 (TZM-bl neutralization) [4]: > 50 mg/L
- IC50 (TZM-bl neutralization assay) [5]: 0.516 mg/L
- IC80 (TZM-bl neutralization assay) [5]: 4.26 mg/L
- IC50 (TZM-bl neutralization assay) [6]: > 40 mg/L
- IC80 (TZM-bl neutralization assay) [6]: > 40 mg/L
- IC80 (TZM-bl neutralization) [7]: > 50 mg/L
- IC80 (TZM-bl neutralization) [8]: > 50 mg/L
- IC50 (TZM-bl neutralization) [9]: 0.092 mg/L
- IC50 (TZM-bl neutralization) [10]: 0.286 mg/L
- IC50 (TZM-bl neutralization) [11]: > 50 mg/L
- IC80 (TZM-bl neutralization) [12]: 7.27 mg/L
- IC50 (TZM-bl neutralization) [13]: > 50 mg/L
- IC50 (TZM-bl neutralization) [14]: 0.243 mg/L
- IC80 (TZM-bl neutralization) [15]: 0.011 mg/L
- IC50 (TZM-bl neutralization assay) [16]: 0.007 mg/L
- IC80 (TZM-bl neutralization assay) [16]: 0.06 mg/L
- IC50 (TZM-bl neutralization) [17]: 0.413 mg/L
- IC80 (TZM-bl neutralization) [18]: 0.044 mg/L
- IC80 (TZM-bl neutralization) [19]: > 50 mg/L
- IC50 (TZM-bl neutralization) [20]: > 50 mg/L
- IC50 (TZM-bl neutralization) [21]: 0.147 mg/L
- IC50 (TZM-bl neutralization) [22]: 0.04 mg/L
- IC50 (TZM-bl neutralization) [23]: 0.57 mg/L
- IC50 (TZM-bl neutralization) [24]: > 50 mg/L
- IC50 (TZM-bl neutralization assay) [25]: 0.256 mg/L
- IC80 (TZM-bl neutralization assay) [25]: 0.891 mg/L
- IC80 (TZM-bl neutralization) [26]: 43.8 mg/L
- IC50 (TZM-bl neutralization) [27]: 0.055 mg/L
- IC50 (TZM-bl neutralization) [28]: > 50 mg/L
- IC80 (TZM-bl neutralization) [29]: 0.25 mg/L
- IC50 (TZM-bl neutralization) [30]: > 50 mg/L
- IC80 (TZM-bl neutralization) [31]: 0.328 mg/L
- IC50 (TZM-bl neutralization) [32]: 4.04 mg/L
- IC50 (TZM-bl neutralization) [33]: 0.173 mg/L
- IC80 (TZM-bl neutralization) [34]: 7.4 mg/L
- IC80 (TZM-bl neutralization) [35]: > 50 mg/L
- IC50 (TZM-bl neutralization) [36]: > 50 mg/L
- IC80 (TZM-bl neutralization) [37]: 1.21 mg/L
- IC80 (TZM-bl neutralization) [38]: 0.553 mg/L
- IC80 (TZM-bl neutralization) [39]: > 50 mg/L
- IC50 (TZM-bl neutralization) [40]: 0.256 mg/L
- IC80 (TZM-bl neutralization) [41]: > 50 mg/L
- IC50 (TZM-bl neutralization) [42]: 0.396 mg/L
- IC80 (TZM-bl neutralization) [43]: > 50 mg/L
- IC50 (TZM-bl neutralization) [44]: > 50 mg/L
- IC80 (TZM-bl neutralization) [45]: 0.422 mg/L
- IC50 (TZM-bl neutralization) [46]: 0.043 mg/L
- IC80 (TZM-bl neutralization) [47]: > 50 mg/L
- IC50 (TZM-bl neutralization) [48]: > 50 mg/L
- IC80 (TZM-bl neutralization) [49]: 0.163 mg/L
